Usually IC50 stands for the concentration that gives 50% inhibition. Read a low IC50 as greater potency. Usually EC50 stands for the concentration giving half of the maximal effect. The low end stands for higher potency in that assay, the high end for lower potency in that assay.

The values that follow come from patent publication US12129308 (Merck KGaA, dated 2024).

One test deals with T1, Aggrecan.
T1 construct: also called CAP
The experiment in a line: competition ELISA (CAP) on Aggrecan; competitor not stated. For orientation: An ELISA detects its analyte on a solid surface through an enzyme-linked reagent.

In test [1] the target is T2, activated human MMP13 (human, UniProt P45452 104-471). Description: cell-based or functional assay.
Test [2] addresses T3, activated MMP13 (species not stated) (Homo sapiens (Human), UniProt P45452 104-471, Biotinylated in the TIMP-2 competition ELISA (sites not given). Activated form: pro-peptide removed.).
T3 construct: campaign 4 ELISA; Probably human
Description: TIMP-2 competition ELISA; Nanobody pre-incubated with 1.26 nM activated MMP13-biotin, binding to captured TIMP-2.

Test [3] concerns the target T3, activated MMP13 (species not stated). The experiment in a line: cell-based or functional assay.
Test [4] concerns the target T4, activated rat MMP13 (rat, UniProt P23097 99-466). The experiment in a line: cell-based or functional assay.
In test [5] the target is T2, activated human MMP13. The experiment in a line: cell-based or functional assay. This is another data set of the same source.
The target in another test is cynomolgus MMP13 (cynomolgus, UniProt A0A2K5U988 104-471). The experiment in a line: cell-based or functional assay.
Test [6] has as its target T4, activated rat MMP13. The experiment in a line: cell-based or functional assay. The source holds these as a separate data set.
The target of another test is bovine MMP13 (bovine, UniProt O77656 104-471). Description: cell-based or functional assay.
The target of test [7] is T5, activated dog MMP13 (dog, UniProt P45452 104-471 (human entry)). The experiment in a line: cell-based or functional assay.
Test [8] has as its target T2, activated human MMP13. Description: cell-based or functional assay. This is another data set of the same source.
The target in test [9] is T2, activated human MMP13. The experiment in a line: cell-based or functional assay. The source holds these as a separate data set.
Test [10] deals with T4, activated rat MMP13. Description: ELISA; activated MMP13 captured via mAb511, Nanobody detected with anti-FLAG-HRP.
Description: (§1) After a washing step in PBS+0.05% Tween20, 20 nM activated human, rat or dog MMP13 were added for one hour at RT. After a second washing step, 10-fold dilutions of periplasmic extracts or dilution series of purified Nanobodies in PBS, 0.1% casein, 0.05% Tween 20 were added for one hour at RT. Bound Nanobodies were detected with mouse anti-FLAG-HRP (Sigma (A8592)).
Test [11] has as its target T5, activated dog MMP13. Described as above.
Description: as §1
In test [12] the target is T2, activated human MMP13. Described as above.
Description: as §1
Test [13] has as its target T2, activated human MMP13. The experiment in a line: competition ELISA: dilution series of Nanobody against 0.6 nM biotinylated 40E09 (C0101040E09-biotin) on APMA-activated human full-length MMP13 captured via mouse anti-human MMP13 mAb MAB511.

Read-outs that look alike come from different tables or passages of the source.

B1: C010100729 (bispecific antibody)
chain: DVQLVESGGGLVQPGGSLRLSCAASGRTFSSYAMGWFRQAPGKEREFVAAISWSGGSTYYADSVKGRFTISRDNSKNTVYLQMNSLRPEDTAVYYCTAALAVYGPSRYRYGPVGEYQYWGQGTLVTVSSGGGGSGGGGSGGGGSGGGGSGGGGSGGGGSGGGGSEVQLVESGGGLVQPGGSLRLSCAASGSTFSRYSMNWYRQAPGKQREFVAGISVGRITNYAVSVKGRFTISRDNSKNTGYLQMNSLRPEDTAVYYCNAGGLQGYWGQGTLVTVSSGGGGSGGGGSGGGGSGGGGSGGGGSGGGGSGGGGSEVQLVESGGGLVQPGGSLRLSCAASGRTFSSYTMGWFRQAPGKEREFVAAISWSGGRTYYADSVKGRFTISRDNSKNTVYLQMNSLRPEDTAVYYCAAYRRRRASSNRGLWDYWGQGTLVTVSSA
notes: also called 517A01SO-40E09SO-604F02SO-A
Molecule B1 came in with an IC50 with Aggrecan of 21 nM. The “potency, human fluorogenic peptide assay” value with activated human MMP13 [1] was determined as 0.541 nM.

B2: C010100702 (bispecific antibody)
chain: EVQLVESGGGLVQPGGSLRLSCAASGRTFSSYAMGWFRQAPGKEREFVAAISWSGGSTYYADSVKGRFTISRDNSKNTVYLQMNSLRPEDTAVYYCTAALAVYGPSRYRYGPVGEYQYWGQGTLVTVSSGGGGSGGGGSGGGGSGGGGSGGGGSGGGGSGGGGSEVQLVESGGGSVQPGGSLRLSCAASGSTFSRYSMNWYRQAPGKQREFVAGISVGRITNYAVSVRGRFTISRDNSEGTGYLQMNSLRPEDTAVYYCNAGGLQGYWGLGTLVTVSSGGGGSGGGGSGGGGSGGGGSGGGGSGGGGSGGGGSEVQLVESGGGLVQPGGSLRLSCAASGSTFIINVVRWYRRAPGKQRELVATISSGGNANYVDSVRGRFTISRDNSKNTVYLQMNSLRPEDTAVYYCNVPTTHYGGVYYGPYWGQGTLVTVSSGGGGSGGGGSGGGGSGGGGSGGGGSGGGGSGGGGSEVQLVESGGGLVQPGGSLRLSCAASGSTFIINVVRWYRRAPGKQRELVATISSGGNANYVDSVRGRFTISRDNSKNTVYLQMNSLRPEDTAVYYCNVPTTHYGGVYYGPYWGQGTLVTVSS
notes: also called 517A01SO-40E09SOvar-114F08SO-114F08SO
B2: in the test with Aggrecan, the IC50 came to 0.12 nM. Further, the “potency, human fluorogenic peptide assay” value with activated human MMP13 [1] worked out at 0.0771 nM.

B3: C010100681 (bispecific antibody)
chain: EVQLVESGGGLVQPGGSLRLSCAASGFTLAYYSIGWFRQAPGKEREGVSCISSGIDGSTYYADSVKGRFTISRDNAKNTMYLQMNNLKPEDTGVYYCAADPSHYYSEYDCGYYGMDYWGKGTLVTVSSGGGGSGGGGSGGGGSGGGGSGGGGSGGGGSGGGGSEVQLVESGGGLVQPGGSLRLSCAASGSTFIINVVRWYRRAPGKQRELVATISSGGNANYVDSVRGRFTISRDNSKNTVYLQMNSLRPEDTAVYYCNVPTTHYGGVYYGPYWGQGTLVTVSSGGGGSGGGGSGGGGSGGGGSGGGGSGGGGSGGGGSEVQLVESGGGLVQPGGSLRLSCAASGSTFIINVVRWYRRAPGKQRELVATISSGGNANYVDSVRGRFTISRDNSKNTVYLQMNSLRPEDTAVYYCNVPTTHYGGVYYGPYWGQGTLVTVSS
notes: MMP13-Aggrecan bispecific Nanobody construct; also called 80A01-114F08SO-114F08SO
In the test with Aggrecan, B3 returned a 50% inhibitory concentration (IC50) of 0.99 nM. The “potency, human fluorogenic peptide assay” value in the test with activated human MMP13 [1] stood at 1.08 nM.

B4: C0101PMP517A01 (VHH)
VHH: DVQLVESGGGLVQPGGSLRLSCAASGRTFSSYAMGWFRQAPGKEREFVAAISWSGGSTYYADSVKGRFTISRDNSKNTVYLQMNSLRPEDTAVYYCTAALAVYGPNRYRYGPVGEYNYWGQGTLVTVSS
notes: Profile 2 Nanobody; also called C0101517A01; C010100087 (parental)
In turn, B4 gave a half-maximal inhibitory concentration (IC50) in test [2] of 2.6 nM. Further, the “IC50, fluorogenic peptide assay” value in test [3] turned out to be 2.5 nM. Moreover, the “IC50, (adapted) rat fluorogenic peptide assay” value with activated rat MMP13 [4] came out at 2.64 nM. For the same molecule, the “IC50, human fluorogenic collagen assay” value in the test with activated human MMP13 [5] was found to be 10.8 nM. For the same molecule, the “IC50, cyno fluorogenic peptide assay” value with cynomolgus MMP13 was found to be 3 nM. Also, in the test with activated rat MMP13 [6], the “IC50, rat fluorogenic peptide assay” value was determined as 2.1 nM. Moreover, the “IC50, bovine fluorogenic peptide assay” value with bovine MMP13 amounted to 6.4 nM. The “IC50, dog fluorogenic peptide assay” value in the test with activated dog MMP13 [7] was determined as 3.4 nM. Moreover, in the test with activated human MMP13 [8], the “IC50, human collagenolytic assay” value amounted to 2.3 nM; the “IC50, human fluorogenic collagen assay” value stood at 10.9 nM; the “IC50, human fluorogenic peptide assay” value stood at 4.6 nM.

B5: C010100690 (bispecific antibody)
chain: EVQLVESGGGLVQPGGSLRLSCAASGFTLAYYSIGWFRQAPGKEREGVSCISSGIDGSTYYADSVKGRFTISRDNAKNTMYLQMNNLKPEDTGVYYCAADPSHYYSEYDCGYYGMDYWGKGTLVTVSSGGGGSGGGGSGGGGSGGGGSGGGGSGGGGSGGGGSEVQLVESGGGLVQPGGSLRLSCAASGRTFSSYTMGWFRQAPGKEREFVAAISWSGGRTYYADSVKGRFTISRDNSKNTVYLQMNSLRPEDTAVYYCAAYRRRRASSNRGLWDYWGQGTLVTVSS
notes: MMP13-Aggrecan bispecific Nanobody construct; also called 80A01-604F02SO
In the case of B5, in the test with Aggrecan, the half-maximal inhibitory concentration (IC50) was found to be 24 nM. Moreover, the “potency, human fluorogenic peptide assay” value with activated human MMP13 [1] was 2.42 nM.

B6: C0101PMP040E09 (VHH)
VHH: EVQLVESGGGSVQAGGSLRLSCAASGSTFSRYSMNWYRQAPGKQREFVAGISVGRITNYAVSVRGRFTISRDNAEGTGYLQMNSLKPEDTAVYYCNAGGLQGYWGLGTQVTVSS
notes: Profile 1 Nanobody; also called C0101040E09
Turning to B6, the “IC50 (read off the curve); fluorogenic Collagen assay, partial inhibition [left graph]” value with activated human MMP13 [9] was ~20 nM. Also, the 50% effective concentration (EC50) turned out to be 0.44 nM in the test with activated rat MMP13 [10], 0.38 nM with activated dog MMP13 [11] and 0.66 nM in the test with activated human MMP13 [12]. Further, the “IC50 (read off the curve)” value with activated human MMP13 [13] was ~4 nM. For the same molecule, the “IC50, human collagenolytic assay” value in the test with activated human MMP13 [8] is 10.2 nM.

B7: C010100724 (bispecific antibody)
chain: DVQLVESGGGLVQPGGSLRLSCAASGSIFSINAMGWYRQAPGKQRELVAAISSGGSTYYADSVKGRFTISRDNSKNTVYLQMNSLRPEDTAVYYCNAAVDASRGLPYELYYYWGQGTLVTVSSGGGGSGGGGSGGGGSGGGGSGGGGSGGGGSGGGGSEVQLVESGGGLVQPGGSLRLSCAASGRTFSSYTMGWFRQAPGKEREFVAAISWSGGRTYYADSVKGRFTISRDNSKNTVYLQMNSLRPEDTAVYYCAAYRRRRASSNRGLWDYWGQGTLVTVSSA
notes: MMP13-Aggrecan bispecific Nanobody construct; also called 529C12SO-604F02SO-A
With B7, the half-maximal inhibitory concentration (IC50) with Aggrecan was determined as 32 nM. The “potency, human fluorogenic peptide assay” value with activated human MMP13 [1] came out at 0.697 nM.

B8: C010100682 (bispecific antibody)
chain: EVQLVESGGGLVQPGGSLRLSCAASGSIFSINAMGWYRQAPGKQRELVAAISSGGSTYYADSVKGRFTISRDNSKNTVYLQMNSLRPEDTAVYYCNAAVDASRGLPYELYYYWGQGTLVTVSSGGGGSGGGGSGGGGSGGGGSGGGGSGGGGSGGGGSEVQLVESGGGLVQPGGSLRLSCAASGSTFIINVVRWYRRAPGKQRELVATISSGGNANYVDSVRGRFTISRDNSKNTVYLQMNSLRPEDTAVYYCNVPTTHYGGVYYGPYWGQGTLVTVSSGGGGSGGGGSGGGGSGGGGSGGGGSGGGGSGGGGSEVQLVESGGGLVQPGGSLRLSCAASGSTFIINVVRWYRRAPGKQRELVATISSGGNANYVDSVRGRFTISRDNSKNTVYLQMNSLRPEDTAVYYCNVPTTHYGGVYYGPYWGQGTLVTVSS
notes: MMP13-Aggrecan bispecific Nanobody construct; also called 529C12SO-114F08SO-114F08SO
On to B8, for which the half-maximal inhibitory concentration (IC50) in the test with Aggrecan came to 0.45 nM. Moreover, the “potency, human fluorogenic peptide assay” value with activated human MMP13 [1] came to 0.551 nM.
